Positions count from the first letter of the chain named.
B1: h1A11.1-F7-S2-SS-Anti-VEGF DVD-Ig (bispecific antibody, part only; not given: anti-VEGF domains, h1A11.1 VL, constant regions, part only)
heavy, part: EVQLVESGGGLVQPGGSLRLSCAASGFTFRHFPMTWVRQAPGKGLEWVASISSSDGTINYRDSVKGRFTISRDNAKNSLYLQMNSLRAEDTAVYYCARGYYNSPFAYWGQGTLVTVSSASTKGP
light, part: TVAAP
B2: h1A11.1-G7-S2-SS-Anti-VEGF DVD-Ig (bispecific antibody, part only; not given: anti-VEGF domains, h1A11.1 VL, constant regions, part only)
heavy, part: B1 heavy, part with R30N, T35A, S50T, G56W, I58P, N59Y
light, part: TVAAP
B3: h1A11.1-H3-S2-SS-Anti-VEGF DVD-Ig (bispecific antibody, part only; not given: anti-VEGF domains, h1A11.1 VL, constant regions, part only)
heavy, part: B1 heavy, part with H31N, T35A, I58T, N77S
light, part: TVAAP
B4: h1A11.1-B9-S2-SS-Anti-VEGF DVD-Ig (bispecific antibody, part only; not given: anti-VEGF domains, h1A11.1 VL, constant regions, part only)
heavy, part: B1 heavy, part with R30S, T35A, G56S, I58T
light, part: TVAAP
B5: h1A11.1-A10-S3-SS-Anti-VEGF DVD-Ig (bispecific antibody, part only; not given: anti-VEGF domains, h1A11.1 VL, constant regions, part only)
heavy, part: B1 heavy, part with T35A, I58S, N77S
light, part: TVAAP
B6: h1A11.1-A04-S3-SS-Anti-VEGF DVD-Ig (bispecific antibody, part only; not given: anti-VEGF domains, h1A11.1 VL, constant regions, part only)
heavy, part: B1 heavy, part with T35A, S50T, T57A, I58T, N59Y, N77S
light, part: TVAAP

What follows are binders tested against human DLL4 (human) (UniProt Q9NR61) (assay: Biacore (SPR), DVD-Ig and huDLL4).
UniProt Q9NR61, sequence (Q9NR61 27-524 limits assumed): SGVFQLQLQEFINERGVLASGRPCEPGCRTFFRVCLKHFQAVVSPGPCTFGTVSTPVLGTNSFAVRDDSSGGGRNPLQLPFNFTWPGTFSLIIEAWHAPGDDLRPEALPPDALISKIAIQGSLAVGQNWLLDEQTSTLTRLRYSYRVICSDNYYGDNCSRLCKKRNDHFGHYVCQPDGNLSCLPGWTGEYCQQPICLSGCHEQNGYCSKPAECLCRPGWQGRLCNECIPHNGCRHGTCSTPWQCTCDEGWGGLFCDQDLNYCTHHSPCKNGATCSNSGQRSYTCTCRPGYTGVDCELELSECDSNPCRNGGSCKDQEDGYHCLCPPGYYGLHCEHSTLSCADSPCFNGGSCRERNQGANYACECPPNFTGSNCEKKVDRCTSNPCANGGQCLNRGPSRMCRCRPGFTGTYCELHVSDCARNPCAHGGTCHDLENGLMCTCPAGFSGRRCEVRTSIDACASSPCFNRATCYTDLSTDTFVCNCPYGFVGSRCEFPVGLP

Compared with B1, B2 is 2.4-fold higher in Kd: 0.556 nM for the first, 1.32 nM for the second.

B3 and B4 are within 1.5-fold of each other in Kd: 1.04 nM for the first, 0.923 nM for the second.

First: B1
Second: B2
The koff of the first is 2.1-fold higher: 0.000319 s⁻¹ for the first, 0.000155 s⁻¹ for the second.

B3 and B4 are within 1.5-fold of each other in koff: 0.000136 s⁻¹ for the first, 0.000106 s⁻¹ for the second.

Going from B1 to B2, the kon falls from 570000 M⁻¹ s⁻¹ to 117000 M⁻¹ s⁻¹ (4.9-fold).

B3 and B4 are within 1.5-fold of each other in kon: 130000 M⁻¹ s⁻¹ for the first, 115000 M⁻¹ s⁻¹ for the second.

Each binder was assayed against murine DLL4 (murine) (UniProt Q9JI71) (assay: Biacore (SPR), DVD-Ig and muDLL4).
UniProt Q9JI71, sequence (Q9JI71 27-525 limits assumed): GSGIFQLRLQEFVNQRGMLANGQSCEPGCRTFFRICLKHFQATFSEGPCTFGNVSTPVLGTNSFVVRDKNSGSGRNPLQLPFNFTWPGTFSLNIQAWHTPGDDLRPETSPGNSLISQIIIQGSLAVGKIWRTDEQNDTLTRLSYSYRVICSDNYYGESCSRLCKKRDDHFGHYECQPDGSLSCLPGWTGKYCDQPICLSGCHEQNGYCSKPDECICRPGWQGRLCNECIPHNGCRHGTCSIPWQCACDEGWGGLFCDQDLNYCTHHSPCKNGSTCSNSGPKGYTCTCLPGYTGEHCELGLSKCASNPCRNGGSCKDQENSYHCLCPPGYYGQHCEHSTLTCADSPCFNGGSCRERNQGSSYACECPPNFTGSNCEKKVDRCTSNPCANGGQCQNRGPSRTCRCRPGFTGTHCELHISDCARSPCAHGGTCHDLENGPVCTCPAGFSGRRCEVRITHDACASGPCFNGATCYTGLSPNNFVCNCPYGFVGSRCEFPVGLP

Going from B5 to B1, the Kd falls from 0.774 nM to 0.361 nM (2.1-fold). The second binds more tightly here.

Going from B6 to B2, the Kd rises from 0.451 nM to 1.57 nM (3.5-fold). The first binds more tightly here.

B3 and B4 are within 1.5-fold of each other in Kd: 1.49 nM for the first, 1.23 nM for the second.

First: B5
Second: B1
The koff of the first is 3.6-fold lower: 0.000133 s⁻¹ for the first, 0.000483 s⁻¹ for the second.

Compared with B6, B2 is 3.3-fold higher in koff: 8.12e-05 s⁻¹ for the first, 0.000266 s⁻¹ for the second.

B3 and B4 are within 1.5-fold of each other in koff: 0.000294 s⁻¹ for the first, 0.000205 s⁻¹ for the second.

Compared with B5, B1 is 7.8-fold higher in kon: 171000 M⁻¹ s⁻¹ for the first, 1.34e+06 M⁻¹ s⁻¹ for the second.

B6 and B2 are within 1.5-fold of each other in kon: 180000 M⁻¹ s⁻¹ for the first, 169000 M⁻¹ s⁻¹ for the second.

B3 and B4 are within 1.5-fold of each other in kon: 197000 M⁻¹ s⁻¹ for the first, 167000 M⁻¹ s⁻¹ for the second.

What follows are binders tested against human DLL4 (human) (UniProt Q9NR61) (assay: Biacore (SPR), huDLL4; reference is the parental DVD).

Going from B1 to B2, the KD ratio (parental DVD/AM DVD) falls from 35.9 fold to 15.2 fold.

First: B3
Second: B4
The KD ratio (parental DVD/AM DVD) of the first is lower: 19.1 fold for the first, 21.6 fold for the second.

Each binder was assayed against murine DLL4 (murine) (UniProt Q9JI71) (assay: Biacore (SPR), muDLL4; reference is the parental DVD).

Compared with B5, B1 is higher in KD ratio (parental DVD/AM DVD): 53.8 fold for the first, 59.2 fold for the second.

Going from B6 to B2, the KD ratio (parental DVD/AM DVD) falls from 92.2 fold to 13.6 fold.

Going from B3 to B4, the KD ratio (parental DVD/AM DVD) rises from 14.3 fold to 17.4 fold.

— patent publication US9915665
